Measured values published in US20200362018.

T1: S. cerevisiae (Yeast) 20S proteasome, FLAG-tagged (Pre1), P22141
T1 sequence (P22141 1-198, looked up): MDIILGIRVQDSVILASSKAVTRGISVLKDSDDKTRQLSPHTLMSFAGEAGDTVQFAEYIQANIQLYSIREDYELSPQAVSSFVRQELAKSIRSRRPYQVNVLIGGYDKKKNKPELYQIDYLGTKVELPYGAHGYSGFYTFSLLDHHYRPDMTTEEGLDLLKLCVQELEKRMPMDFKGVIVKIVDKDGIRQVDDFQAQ

T2: T. acidophilum (Archaea) 20S proteasome, P25156
T2 chain 1: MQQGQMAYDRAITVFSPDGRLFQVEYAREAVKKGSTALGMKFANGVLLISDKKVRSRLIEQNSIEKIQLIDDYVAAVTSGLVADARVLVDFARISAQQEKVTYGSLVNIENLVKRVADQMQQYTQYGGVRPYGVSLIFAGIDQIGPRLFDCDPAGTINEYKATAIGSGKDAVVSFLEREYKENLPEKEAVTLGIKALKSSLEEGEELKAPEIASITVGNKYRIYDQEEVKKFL
T2 chain 2: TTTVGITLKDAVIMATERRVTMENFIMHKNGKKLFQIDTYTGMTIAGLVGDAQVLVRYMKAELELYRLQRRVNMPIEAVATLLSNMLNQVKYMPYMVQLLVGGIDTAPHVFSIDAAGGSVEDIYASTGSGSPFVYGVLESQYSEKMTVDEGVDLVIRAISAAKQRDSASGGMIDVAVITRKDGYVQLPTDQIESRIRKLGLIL


Legend:
[1] = biological target: 20S proteasome (source not stated for the experiment)
[2] = biological target: R. norvegicus (Mammalian) 20S proteasome purified from rat liver
[3] = biological target: T1, S. cerevisiae (Yeast) 20S proteasome, …
[4] = biological target: T2, T. acidophilum (Archaea) 20S …

Row | Protein | time-dependent degradation of α-synuclein by the 20S proteasome, SDS-PAGE with image analysis [1] | in vitro degradation of oxidized calmodulin by purified mammalian 20S proteasomes [2] | in vitro degradation of α-synuclein by purified mammalian 20S proteasomes [2] | degradation of α-synuclein by the 20S proteasome, SDS-PAGE time course [3] | degradation of α-synuclein by the 20S proteasome, SDS-PAGE time course [4]
1 | human NQO2 (recombinant, His-TEV fragment removed) (protein) MAGKKVLIVYAHQEPKSFNGSLKNVAVDELSRQGCTVTVSDLYAMNLEPRATDKDITGTLSNPEVFNYGVETHEAYKQRSLASDITDEQKKVREADLVIFQFPLYWFSVPAILKGWMDRVLCQGFAFDIPGFYDSGLLQGKLALLSVTTGGTAEMYTKTGVNGDSRYFLWPLQHGTLHFCGFKVLAPQISFAPEIASEEERKGMVAAWSQRLQTIWKEEPIPCTAHWHFGQ | In the presence of NQO2, CBR3, PGDH, NRas, KRas and RhoA, however, there was a marked decrease in the degradation rate. | OxCam degradation was inhibited by all the candidates | the majority of the CCRs successfully inhibited the degradation of α-synuclein, with the exception of RBBP9 and HRas | – | –
2 | human RBBP9 with a C-terminal 6His tag (protein) MASPSKAVIVPGNGGGDVTTHGWYGWVKKELEKIPGFQCLAKNMPDPITARESIWLPFMETELHCDEKTIIIGHSSGAIAAMRYAETHRVYAIVLVSAYTSDLGDENERASGYFTRPWQWEKIKANCPYIVQFGSTDDPFLPWKEQQEVADRLETKLHKFTDCGHFQNTEFHELITVVKSLLKVPA | – | OxCam degradation was inhibited by all the candidates | – | – | –
3 | human PGDH with a C-terminal 6His tag (protein) MHVNGKVALVTGAAQGIGRAFAEALLLKGAKVALVDWNLEAGVQCKAALDEQFEPQKTLFIQCDVADQQQLRDTFRKVVDHFGRLDILVNNAGVNNEKNWEKTLQINLVSVISGTYLGLDYMSKQNGGEGGIIINMSSLAGLMPVAQQPVYCASKHGIVGFTRSAALAANLMNSGVRLNAICPGFVNTAILESIEKEENMGQYIEYKDHIKDMIKYYGILDPPLIANGLITLIEDDALNGAIMKITTSKGIHFQDYDTTPFQAKTQ | – | OxCam degradation was inhibited by all the candidates | the majority of the CCRs successfully inhibited the degradation of α-synuclein, with the exception of RBBP9 and HRas | – | –
4 | human CBR3 (recombinant, His tag removed) (protein) MSSCSRVALVTGANRGIGLAIARELCRQFSGDVVLTARDVARGQAAVQQLQAEGLSPRFHQLDIDDLQSIRALRDFLRKEYGGLNVLVNNAAVAFKSDDPMPFDIKAEMTLKTNFFATRNMCNELLPIMKPHGRVVNISSLQCLRAFENCSEDLQERFHSETLTEGDLVDLMKKFVEDTKNEVHEREGWPNSPYGVSKLGVTVLSRILARRLDEKRKADRILVNACCPGPVKTDMDGKDSIRTVEEGAETPVYLALLPPDATEPQGQLVHDKVVQNW | – | OxCam degradation was inhibited by all the candidates | the majority of the CCRs successfully inhibited the degradation of α-synuclein, with the exception of RBBP9 and HRas | Human CBR3 inhibited 20S proteasomes from all tested species. | Human CBR3 inhibited 20S proteasomes from all tested species.
